According to patent US20220112288A1 (published 2022):
Where a chain is given by its changes, count along the chain named.

B1: 75110_05G15A (antibody, V domains shown)
VH: QVQLQESGPGLVKPSQTLSLTCTVSGGSISSGGYFWSWIRQHPGKGLEWIGCIYYSGSTYYIPSLKSRVTISVDTSKNQFSLKLRSVTAADTAVYYCARDGYDYWYFDLWGRGTLVTVSS
VL: not shown
B2: 75110_05E05A (antibody, V domains shown)
VH: QVQLQESGPGLVKPSETLSLTCTVSGGSIGSYYWSWIRQPAGKGLEWIGRIYTSGSTNYNPSLKSRVTMSFDTSKNQFSLKLNSVTAADTAVYYCATDGGVGDSLDYWGQGTLVTVSS
VL: DIVMTQTPLSLPVTPGEPASISCRSSQSLLDSDDGNTYLDWYLQKPGQSPQLLIYTLSYRASGVPDRFSGSGSGTDFTLKISRVEAEDVGVYYCMQHIEFPFTFGPGTKVDIK
notes: Tested as clonal hybridoma supernatant of an AlivaMab Mouse Kappa antibody (human variable regions, kappa; detected with anti-mouse Fc)
B3: 75110_05L07A (antibody, V domains shown)
VH: EVQLVESGGGLVQPGGSLRLSCAASGFTFSSYWMSWVRQAPGKGLEWVANINQDGSDKYYVDSVKGRFTISRDNVKNSLYLQINSLRAEDTAVYYCAREGGQWLTLDYWGQGTLVTVSS
VL: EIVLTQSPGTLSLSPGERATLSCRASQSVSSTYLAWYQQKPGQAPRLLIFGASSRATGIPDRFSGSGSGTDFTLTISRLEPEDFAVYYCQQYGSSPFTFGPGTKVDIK
notes: as for B2
B4: 75110_05E13A (antibody, V domains shown)
VH: EVQLVESGGDLVKPGGSLRLSCAASGFSFSNAWMSWVRQAPGKGLEWVGRVESKTDGGTTDYAAPVKDRFTISRDDSKYTLYLQMNSLKTEDSAVYYCTIGGGFGLELYGFFDYWGQGTLVTVSS
VL: DIQMTQSPSTLSASVGDRVTITCRASQSISSWLAWYQQKPGKAPMLLIYKASSLESGVPSRFSGSGSGTEFTLTISSLQPDDFATYYCLQYNSYYTFGQGTKLEIK
notes: as for B2
B5: 75110_04P08A (antibody, V domains shown)
VH: QVQLQQWGAGLLKPSETLSLTCAVYGGSLSGYYWSWIRQSPGKGLEWIGEINQSGSTNYNPSLKSRVTISVDTSKDQFSLRLTSVTAADTAVYYCTRVLNWFDPWGRGTLVTVSS
VL: DIQMTQSPSSVSASVGDRVTLTCRASQDISNWLAWYQQKPGKAPKLLIYAASSLQSGVPSRFSGSGSGTDFTLTISSLQTEDFATYYCQQANSFPYTFGQGTKLEIK
notes: as for B2
B6: 75110_06D16A (antibody, V domains shown)
VH: B5 VH with L29F, S40P, Q53H, D72V, D76N, R81K, T83S, T96A, R107Q
VL: B5 VL with L21I, S30A, N31D, L54F, T80P, Y87F
notes: as for B2
B7: 75110_07B16A (antibody, V domains shown)
VH: B5 VH with L29F, R81K, T83S, T96A, L99I, P104S, R107Q, T109S
VL: B5 VL with L21I, D28G, N31S, A50D, L54F, E81D
B8: 75110_05B13A (antibody, V domains shown)
VH: QVLLEQWGAGLLKPSETLSLTCAVYGGSFSGYYWTWIRQPPGKGLEWIGEINHRGSTNYNPSLKSRVTISIDTSKNQFSLKVKSVTAADTAMYYCTRPDSNWFDPWGQGTLVTVSS
VL: B5 VL with L21I, Y49F, T80P, Y96L, Q100G, L104V
notes: as for B2
B9: 75110_05A11A (antibody, V domains shown)
VH: EVQLVESGGGLVKPGGSLTLSCAASGFTFSNTWMSWVRQAPGKGLEWVGRIKSKIDGGTTDYAAPVKGRFTISRDDSKNTLYLQMNSLKTEDTAVYYCTTSGTYSSGWGLFDYWGQGTLVTVSS
VL: DIQMTQSPSSLSASVGDRVTITCQASQDISNYLNWYQQKPGKAPKLLIYDTSNLEAGVPSRFSGSGSGTHFTLTISSLQPEDIATYYCQQYDNLPFTFGGGTRVEIK
notes: as for B2
B10: 75110_06C16A (antibody, V domains shown)
VH: QVQLQESGPGLVTPSETLSLSCTVSGGSISDYYWSWIRQPGGKGLEWIGRIYSSGSTNYNPSLKSRVTMSVDTSKNQFSLKLSSVTAADTAVYFCARDREDYYYYGMDVWGQGTTVTVSS
VL: B9 VL with Q27H, D50A, T51A, A56T, H70D, T72S, L73F, N93H, F96L, R103K
notes: as for B2
B11: 75110_06G04A (antibody, V domains shown)
VH: QVQLLESGPGLVKPSETLSLTCTVSGGSISSYYWSWIRQPAGKGLEWIGRIYISGSTNYNPSLKSRVTMSIDTSENQFSLNLSSVTAADTAVYYCARELERPYYYGMDVWGQGTTVTVSS
VL: B9 VL with D50N, T51A, N53T, A56T, H70D, L73F, F96L, R103K, I106F
B12: 75110_08D24A (antibody, V domains shown)
VH: B10 VH with T13K, S21T, D31G, Y32F, G41A, S53T, G55E, S56N, F94Y, D101G
VL: B9 VL with D50A, T51A, A56T, H70D, L73F, N93S, F96I, G100Q, V104L
B13: 75110_06K03A (antibody, V domains shown)
VH: B11 VH with L5Q, S31T, Y52N, I53T, N58T, I71V, E75K, N81K, P102Y
VL: B9 VL with D50Y, T51A, N53I, A56T, H70D, L73F, N93S, F96L, R103K
B14: 75110_08M20A (antibody, V domains shown)
VH: B10 VH with G8D, T13K, S21T, D31S, G41A, S53A, F94Y, D101G
VL: DIQMTQSPSSLSASVGDRVTITCQASQDISKYLNWYQQKPGKAPNLLIYAASNLETGVPSRFSGSGSGTDFTFTISSLQPEDIAAYYCQQYDSLPITFGQGTRLEIK
B15: 75110_06E14A (antibody, V domains shown)
VH: B10 VH with T13K, S21T, D31N, Y33F, G41A, S56N, F94Y
VL: B14 VL with K31N, N45K, A50G, N53I, S63T, A85T
B16: 75110_08H11A (antibody, V domains shown)
VH: EVQLVESGGGLVQPGGSLRLSCAASGFTFSSYDMHWVRQATGKGLEWVSTIGTAGDTYYPGSVKGRFTISRENAKNSLYLQMNSLRAGDTAVYYCARGGYSYYGMDVWGQGTTVTVSS
VL: EIVLTQSPGTLSLSPGERATLSCGASQSVSSTYLAWYQQKPGQAPRLLIYGASSRATGIPDRFSGSGSGTDFTLTISRLEPEDFAVYYCQQFGSSPFTFGPGTKVDIK
B17: 75110_08H06A (antibody, V domains shown)
VH: B16 VH with S31N, S101D
VL: B16 VL with G24R, V29I, S30T, T32I, Q38R, F92Y
B18: 75110_07E04A (antibody, V domains shown)
VH: B16 VH with A24V, N76K, S77F, S101Y
VL: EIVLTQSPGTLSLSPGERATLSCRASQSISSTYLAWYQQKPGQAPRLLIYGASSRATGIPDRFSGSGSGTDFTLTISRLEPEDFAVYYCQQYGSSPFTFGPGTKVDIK
B19: 75110_08K12A (antibody, V domains shown)
VH: B16 VH with K75E, V92L, G99D, S101Y
VL: B16 VL with G24R, S54N, S94T

Assays:
human CD4 on human PBMCs [1] = target: T1, human CD4 on human PBMCs (human, UniProt P01730 26-458); assay: FACS, clonal hybridoma supernatant on PBMCs
T1 construct: whole, on cells; the CD4-positive gate was set with the control antibodies OKT4 and RPA-T4; also called hCD4

human CD4 on human PBMCs [2] = target: T2, human CD4 on human PBMCs (human, UniProt P01730 26-458); assay: FACS, clonal hybridoma supernatant on PBMCs
T2 construct: whole, on cells; also called hCD4

Row | Binder | % CD4 Stain (human CD4 on human PBMCs [1]) [%] | gMFI of CD4+ (human CD4 on human PBMCs [1]) [gMFI] | % CD4 Stain (human CD4 on human PBMCs [2]) [%] | gMFI of CD4+ (human CD4 on human PBMCs [2]) [gMFI]
1 | B1 | 31.6 | 326000 | – | –
2 | B2 | 31.8 | 64000 | – | –
3 | B3 | 37.9 | 156000 | – | –
4 | B4 | 38.9 | 257000 | – | –
5 | B5 | 36.4 | 128000 | – | –
6 | B6 | 39.2 | 253000 | – | –
7 | B7 | – | – | 37.3 | 189000
8 | B8 | 55.8 | 135000 | – | –
9 | B9 | 35.9 | 246000 | – | –
10 | B10 | 33.1 | 270000 | – | –
11 | B11 | – | – | 34.8 | 307000
12 | B12 | – | – | 33.6 | 332000
13 | B13 | – | – | 34 | 320000
14 | B14 | – | – | 34.1 | 343000
15 | B15 | – | – | 31.7 | 225000
16 | B16 | – | – | 27.1 | 87000
17 | B17 | – | – | 28.1 | 88800
18 | B18 | – | – | 36.1 | 141000
19 | B19 | – | – | 34.6 | 175000
